Each block holds one molecule with its values, some of them ahead of it.
Key:
fibrinogen = fibrinogen (UniProt P02671); experiment: SPR
collagen = experiment: cell adhesion assay
fibrinogen, P02671 = target: T1, fibrinogen, P02671; experiment: cell adhesion assay; details: remark: other sources report otherwise
T1 chain 1: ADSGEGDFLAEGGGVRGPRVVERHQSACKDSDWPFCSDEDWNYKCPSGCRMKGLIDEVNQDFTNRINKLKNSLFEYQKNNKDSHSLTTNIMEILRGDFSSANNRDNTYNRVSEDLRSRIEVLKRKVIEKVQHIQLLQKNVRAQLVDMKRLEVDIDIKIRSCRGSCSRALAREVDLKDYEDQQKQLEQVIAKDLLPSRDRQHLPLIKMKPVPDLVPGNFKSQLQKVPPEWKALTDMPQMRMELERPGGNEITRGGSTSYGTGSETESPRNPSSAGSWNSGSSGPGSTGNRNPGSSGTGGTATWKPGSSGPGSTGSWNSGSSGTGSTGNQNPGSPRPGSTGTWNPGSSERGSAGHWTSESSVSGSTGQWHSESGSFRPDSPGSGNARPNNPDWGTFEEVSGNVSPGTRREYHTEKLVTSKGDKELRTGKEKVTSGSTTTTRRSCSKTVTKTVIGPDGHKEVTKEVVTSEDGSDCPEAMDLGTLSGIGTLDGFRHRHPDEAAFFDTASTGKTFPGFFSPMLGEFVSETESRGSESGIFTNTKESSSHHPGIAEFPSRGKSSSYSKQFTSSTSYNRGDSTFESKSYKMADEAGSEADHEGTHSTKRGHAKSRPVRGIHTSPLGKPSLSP
T1 chain 2: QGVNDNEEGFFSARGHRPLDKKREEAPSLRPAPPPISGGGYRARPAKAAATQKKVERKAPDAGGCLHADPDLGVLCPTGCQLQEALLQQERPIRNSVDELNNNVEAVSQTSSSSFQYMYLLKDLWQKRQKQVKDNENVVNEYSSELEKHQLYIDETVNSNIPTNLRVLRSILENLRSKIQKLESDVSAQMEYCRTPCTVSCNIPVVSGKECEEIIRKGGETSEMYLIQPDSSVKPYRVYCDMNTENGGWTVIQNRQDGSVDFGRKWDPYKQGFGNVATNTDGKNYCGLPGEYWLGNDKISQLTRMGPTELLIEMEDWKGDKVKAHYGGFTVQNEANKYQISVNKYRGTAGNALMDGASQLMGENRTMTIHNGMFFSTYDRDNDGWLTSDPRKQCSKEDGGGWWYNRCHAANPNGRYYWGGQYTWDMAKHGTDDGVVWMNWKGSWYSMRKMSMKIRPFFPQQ
T1 chain 3: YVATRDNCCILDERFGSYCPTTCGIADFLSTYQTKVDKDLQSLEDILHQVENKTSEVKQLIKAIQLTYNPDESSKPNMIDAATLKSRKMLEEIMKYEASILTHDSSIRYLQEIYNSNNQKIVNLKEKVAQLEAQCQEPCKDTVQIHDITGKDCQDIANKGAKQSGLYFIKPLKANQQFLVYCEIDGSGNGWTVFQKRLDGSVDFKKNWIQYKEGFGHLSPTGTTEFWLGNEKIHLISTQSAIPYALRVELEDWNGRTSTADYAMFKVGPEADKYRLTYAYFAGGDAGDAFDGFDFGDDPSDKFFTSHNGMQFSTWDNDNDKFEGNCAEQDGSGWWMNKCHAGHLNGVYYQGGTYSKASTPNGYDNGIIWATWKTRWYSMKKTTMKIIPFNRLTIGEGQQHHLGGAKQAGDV

Kd (fibrinogen): 336 nM
koff (fibrinogen): 0.00394 s⁻¹
kon (fibrinogen): 11700 M⁻¹ s⁻¹
Molecule: recombinant soluble GPVI extracellular domain, monomer (GPVI-ex) (from UniProt Q9HCN6 21-267) (domain or fragment)

fold increase in cell adhesion relative to mock-transfected cells (collagen): 3 fold
Molecule: human GPVI expressed on RBL-2H3 cells (from UniProt Q9HCN6 21-339) (receptor)

fold increase in cell adhesion relative to mock-transfected cells (fibrinogen, P02671): 3 fold
B1: human GPVI expressed on RBL-2H3 cells, Q9HCN6 21-339 (receptor)
chain: QSGPLPKPSLQALPSSLVPLEKPVTLRCQGPPGVDLYRLEKLSSSRYQDQAVLFIPAMKRSLAGRYRCSYQNGSLWSLPSDQLELVATGVFAKPSLSAQPGPAVSSGGDVTLQCQTRYGFDQFALYKEGDPAPYKNPERWYRASFPIITVTAAHSGTYRCYSFSSRDPYLWSAPSDPLELVVTGTSVTPSRLPTEPPSPVAEFSEATAELTVSFTNEVFTTETSRSITASPKESDSPAGPARQYYTKGNLVRICLGAVILIILAGFLAEDWHSRRKRLRHRGRAVQRPLPPLPPLPLTRKSNGGQDGGRQDVHSRGLCS

— PMC5927996
